The target in the test is T1, Extra Domain-A (ED-A) isoform of fibronectin in bone marrow biopsies of AML patients (human, UniProt P02751 1722-1811, limits assumed).
T1 construct: The antigen was not used as an isolated protein; It is the native protein in patient tissue sections; also called A-FN; EDA domain of fibronectin
The experiment in a line: immunohistochemistry, bone marrow biopsies of two patients with extramedullary AML, biotinylated SIP 2 ug/ml. As for the experimental part:
For immunohistochemistry, biotinylated antibodies were used in small immunoprotein format (SIP) under identical conditions (2 μg/ml). Aliquots were prepared from a single batch of antibodies, frozen and used only once to ensure reproducibility of immunohistochemical stainings. Frozen tissue samples were stored at −80° C. Sections of 10 μm thickness were fixed in chilled acetone, rehydrated in TBS buffer (50 mM Tris, 100 mM NaCl, 0.001% Aprotinin, pH 7.4) and blocked with 20% fetal calf serum in TBS. The antibodies were added onto the sections in a final concentration of 2 μg/mL in 3% bovine serum albumin (BSA)/TBS solution and incubated for one hour. After washing in TBS, bound antibodies were detected with streptavidin-biotinylated alkaline phosphatase complex (Biospa, Milan, Italy) in TBS 3% BSA+2 mM MgCl₂. The Fast Red substrate (Sigma) was used for detection of phosphatase activity. Sections were counterstained with Gill's hematoxylin No. 2 (Sigma) and mounted with Glycergel mounting medium (Dako, Glostrup, Denmark).

T1 sequence (P02751 1722-1811 limits assumed): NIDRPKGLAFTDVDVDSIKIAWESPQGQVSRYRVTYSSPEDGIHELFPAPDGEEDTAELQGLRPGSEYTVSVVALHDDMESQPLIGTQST

B1: F8-SIP (V5L/K18R) (antibody)
chain: EVQLLESGGGLVQPGGSLRLSCAASGFTFSLFTMSWVRQAPGKGLEWVSAISGSGGSTYYADSVKGRFTISRDNSKNTLYLQMNSLRAEDTAVYYCAKSTHLYLFDYWGQGTLVTVSSGGGGSGGGSGGGGGEIVLTQSPGTLSLSPGERATLSCRASQSVSMPFLAWYQQKPGQAPRLLIYGASSRATGIPDRFSGSGSGTDFTLTISRLEPEDFAVYYCQQMRGRPPTFGQGTKVEIKSGGSGGPRAAPEVYAFATPEWPGSRDKRTLACLIQNFMPEDISVQWLHNEVQLPDARHSTTQPRKTKGSGFFVFSRLEVTRAEWEQKDEFICRAVHEAASPSQTVQRAVSVNPESSRRGGC
modifications: biotinylated (sites not given)
notes: Human monoclonal mini-immunoglobulin (small immunoprotein, SIP); It was used biotinylated at 2 ug/ml on tissue sections; also called F8 (V5L/K18R)
In the case of B1, the binding result was “binds”.
